# Data taken from IntAct's records for PubMed 18583988.
# Target: csk21_human CSNK2A1 (UniProt P68400)
# UniProt P68400, sequence (P68400 whole entry, looked up): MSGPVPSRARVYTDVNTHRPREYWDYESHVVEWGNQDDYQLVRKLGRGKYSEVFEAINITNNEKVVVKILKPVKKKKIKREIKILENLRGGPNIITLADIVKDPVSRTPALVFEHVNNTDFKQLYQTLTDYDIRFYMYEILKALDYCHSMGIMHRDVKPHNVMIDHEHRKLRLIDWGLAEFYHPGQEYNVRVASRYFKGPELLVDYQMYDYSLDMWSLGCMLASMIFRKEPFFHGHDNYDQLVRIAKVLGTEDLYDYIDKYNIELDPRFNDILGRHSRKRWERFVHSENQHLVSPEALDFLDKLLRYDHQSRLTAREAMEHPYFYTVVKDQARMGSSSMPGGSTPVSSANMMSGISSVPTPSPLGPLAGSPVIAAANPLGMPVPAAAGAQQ
row,Substance,effect of a mutation on the interaction
1,"Mediator of DNA damage checkpoint protein 1 (Homo sapiens), Q14676 T331A",disrupting interaction
2,"Mediator of DNA damage checkpoint protein 1 (Homo sapiens), Q14676 T301A",disrupting interaction
